Measurements as given in article PMC5539292, “Calcium Ion Induced Structural Changes Promote Dimerization of Secretagogin, Which Is Required for Its Insulin Secretory Function” (Scientific Reports, 2017).

Assays:
[1] = biological target: recombinant human secretagogin (hSCGN) wild type (human) (UniProt O76038); experiment: SEC; 450 µg protein on Superdex 200 HR 10/30 in PBS, 0.5 mL/min; samples pretreated with EGTA and DTT, then treated with Ca^2+ and H2O2
[2] = biological target: the molecule itself; experiment: non-reducing SDS-PAGE of disulfide-linked dimers; recombinant protein incubated with 0 or 2 mM CaCl2 at R.T. for 15 min, then H2O2 at 37°C for 1 h; Coomassie blue staining

Molecule	stoichiometry N [1]	binding result [2]
recombinant human secretagogin (hSCGN) wild type (from UniProt O76038 1-276) (natural protein)	2	
purified hSCGN ΔEF1 (deletion of 1-52 a.a.) (domain or fragment, human, UniProt O76038 53-276, looked up, human secretagogin (SCGN) without residues 1-52 (EF1); The methods describe ΔEF1 only as a pcDNA3.1 construct; also called ΔEF1 protein; recombinant ΔEF1; source: purified recombinant protein) TVMKANLHKVKQQFMTTQDASKDGRIRMKELAGMFLSEDENFLLLFRRENPLDSSVEFMQIWRKYDADSSGFISAAELRNFLRDLFLHHKKAISEAKLEEYTGTMMKIFDRNKDGRLDLNDLARILALQENFLLQFKMDACSTEERKRDFEKIFAYYDVSKTGALEGPEVDGFVKDMMELVQPSISGVDLDKFREILLRHCDVNKDGKIQKSELALCLGLKINP		binds
